As usually defined, the Kd is the equilibrium constant for the complex coming apart. The term koff denotes the first-order rate constant of dissociation. A lower koff goes with a long-lived complex.

The text below walks through data of patent US20100135997A1 (MEDGENE, published 2010).

The test has as its target T1, HLA-A*0201 loaded with the Carcinoembryonic antigen (CEA)-derived … peptide (biotin on the C-terminal biotinylation tag).
T1 construct: Soluble, biotinylated, immobilised on a streptavidin chip
The experiment in a line: Biacore SPR. Here is the method: SPR measures changes in refractive index expressed in response units (RU) near a sensor surface within a small flow cell, a principle that can be used to detect receptor ligand interactions and to analyse their affinity and kinetic parameters. The probe flow cells were prepared by immobilising the pMHC complexes in flow cells via biotin-tag binding. The assay was then performed by passing soluble ILT-like molecule over the surfaces of the different flow cells at a constant flow rate, measuring the SPR response in doing so.

Substitutions are numbered along the chain they refer to. Some results are limits rather than exact numbers.

B1: SEQ ID NO 61 (receptor)
chain: MGHLPKPTLWAEPGSVITMGQPVTLRCQGGQETQEYRLYREKKTAPWITRIPQELVKKGQFPIPSITWEHAGRYRCYYGSDTAGRSESSDPLELVVTGAYIKPTLSAQPSPVVNSGGNVTLQCDSQVAFDGFILCKEGEDEHPQCLNSQPHARGSSRAIFSVGPVSPSRRWWYRCYAYDSNSPYEWSLPSDLLELLVL
notes: mutated soluble two domain ILT-2
For the molecule B1, the Kd was no more than 1000 nM and the koff was no more than 2 s⁻¹.

B2: SEQ ID NO 96 (receptor)
chain: B1 chain with M19Q, Q21S, W47Q, A99V, I101V, K102A, S168G
notes: as for B1
For the molecule B2, the Kd was no more than 1000 nM and the koff is no more than 2 s⁻¹.

B3: SEQ ID NO 81 (receptor)
chain: B1 chain with G20D, Y77M, Y78Q, G79Y, S80T, D81L, A99V
notes: as for B1
With B3, the dissociation constant Kd was no more than 1000 nM and the koff was no more than 2 s⁻¹.

B4: SEQ ID NO 106 (receptor)
chain: B1 chain with M19L, A83S, G84Q, R85W, E87A, A99I, I101L, K102A
notes: as for B1
Regarding B4, the Kd is no more than 1000 nM and the off-rate (koff) is no more than 2 s⁻¹.

B5: SEQ ID NO 77 (receptor)
chain: B1 chain with M19Q, Q21S, Y77M, Y78Q, G79Y, S80T, D81L
notes: as for B1
Molecule B5 showed a Kd of no more than 1000 nM and an off-rate (koff) of no more than 2 s⁻¹.

B6: SEQ ID NO 98 (receptor)
chain: B1 chain with M19Q, Q21S, A99I, I101Q, K102R, S168G
notes: as for B1
With B6, the Kd is no more than 1000 nM and the koff is no more than 2 s⁻¹.

B7: SEQ ID NO 103 (receptor)
chain: B1 chain with G20D, A99I, I101L, K102A
notes: as for B1
B7: the Kd is no more than 1000 nM and the koff was no more than 2 s⁻¹.

B8: SEQ ID NO 89 (receptor)
chain: B1 chain with M19L, A99V, S168G
notes: as for B1
B8: the Kd was no more than 1000 nM and the koff is no more than 2 s⁻¹.

B9: SEQ ID NO 84 (receptor)
chain: B1 chain with M19Q, Q21S, A99I, I101K, K102A
notes: as for B1
Turning to B9, the Kd was no more than 1000 nM and the koff was no more than 2 s⁻¹.

B10: SEQ ID NO 65 (receptor)
chain: B1 chain with G20D, A83S, G84Q, R85W, E87A, A99V
notes: as for B1
The molecule B10 had a Kd of no more than 1000 nM and a dissociation rate constant (koff) of no more than 2 s⁻¹.

B11: SEQ ID NO 69 (receptor)
chain: B1 chain with M19L, G20S, A99V
notes: as for B1
Regarding B11, the Kd was no more than 1000 nM and the koff was no more than 2 s⁻¹.

B12: SEQ ID NO 82 (receptor)
chain: B1 chain with M19Q, Q21S, A99I, I101R, K102Q
notes: as for B1
In the case of B12, the equilibrium dissociation constant (Kd) is no more than 1000 nM and the koff was no more than 2 s⁻¹.

B13: SEQ ID NO 73 (receptor)
chain: B1 chain with M19Q, Q21S, Y77M, Y78Q, G79Y, S80T, D81L, A99V
notes: as for B1
Molecule B13 returned a dissociation constant Kd of no more than 1000 nM and a koff of no more than 2 s⁻¹.

B14: SEQ ID NO 86 (receptor)
chain: B1 chain with M19Q, Q21A, A99V, S168G
notes: as for B1
B14 displayed a Kd of no more than 1000 nM and a koff of no more than 2 s⁻¹.

B15: SEQ ID NO 79 (receptor)
chain: B1 chain with G20D, S80T, D81Q, A99V, S168G
notes: as for B1
As to B15, the Kd was no more than 1000 nM and the koff was no more than 2 s⁻¹.

B16: SEQ ID NO 90 (receptor)
chain: B1 chain with M19Q, Q21S, A99V, S168G
notes: as for B1
Consider B16, for which the Kd was no more than 1000 nM and the koff was no more than 2 s⁻¹.

B17: SEQ ID NO 68 (receptor)
chain: B1 chain with M19L, G20F
notes: as for B1
B17: the Kd was no more than 1000 nM and the koff was no more than 2 s⁻¹.

B18: SEQ ID NO 76 (receptor)
chain: B1 chain with M19Q, Q21S, S80T, D81Q
notes: as for B1
For the molecule B18, the Kd was no more than 1000 nM and the koff was no more than 2 s⁻¹.

B19: SEQ ID NO 83 (receptor)
chain: B1 chain with M19Q, Q21S, A99I, I101L, K102A
notes: as for B1
In turn, B19 showed a dissociation constant (Kd) of no more than 1000 nM and a koff of no more than 2 s⁻¹.

B20: SEQ ID NO 85 (receptor)
chain: B1 chain with M19Q, Q21S, A99I, I101Q, K102A
notes: as for B1
Take B20: the Kd was no more than 1000 nM and the koff is no more than 2 s⁻¹.

B21: SEQ ID NO 74 (receptor)
chain: B1 chain with M19Q, Q21S, A83S, G84Q, R85W, E87A, A99V
notes: as for B1
On to B21, for which the Kd is no more than 1000 nM and the koff is no more than 2 s⁻¹.

B22: SEQ ID NO 91 (receptor)
chain: B1 chain with M19Q, Q21S, I66V, A99V
notes: as for B1
In the case of B22, the Kd is no more than 1000 nM and the koff is no more than 2 s⁻¹.

B23: SEQ ID NO 78 (receptor)
chain: B1 chain with G20D, D81Q, T82G, A83G, G84L, A99V, S168G
notes: as for B1
As for B23, the Kd is no more than 1000 nM and the koff is no more than 2 s⁻¹.

B24: SEQ ID NO 87 (receptor)
chain: B1 chain with M19Q, Q21R, A99V
notes: as for B1
Regarding B24, the Kd is no more than 1000 nM and the koff is no more than 2 s⁻¹.

B25: SEQ ID NO 95 (receptor)
chain: B1 chain with M19Q, Q21S, Y77Q, Y78G, G79V, D81Q, A99V
notes: as for B1
Consider B25, for which the Kd is no more than 1000 nM and the koff was no more than 2 s⁻¹.

B26: SEQ ID NO 97 (receptor)
chain: B1 chain with M19Q, Q21S, A99I, I101K, K102A, S168G
notes: as for B1
The molecule B26 yielded a Kd of no more than 1000 nM and a koff of no more than 2 s⁻¹.

B27: SEQ ID NO 72 (receptor)
chain: B1 chain with M19Q, Q21S, S80T, D81Q, A99V
notes: as for B1
Regarding B27, the Kd was no more than 1000 nM and the koff is no more than 2 s⁻¹.

B28: SEQ ID NO 62 (receptor)
chain: B1 chain with G20D, A99V, S168G
notes: as for B1
For the molecule B28, the Kd is no more than 1000 nM and the koff is no more than 2 s⁻¹.

B29: SEQ ID NO 80 (receptor)
chain: B1 chain with G20D, Y77V, Y78I, G79Q, S80R, D81G, A99V
notes: as for B1
B29 came in with a Kd of no more than 1000 nM and a koff of no more than 2 s⁻¹.

B30: SEQ ID NO 101 (receptor)
chain: B1 chain with M19Q, Q21S, A99I, I101K, K102Q, S168G
notes: as for B1
On to B30, for which the dissociation constant Kd is no more than 1000 nM and the dissociation rate constant (koff) was no more than 2 s⁻¹.

B31: SEQ ID NO 94 (receptor)
chain: B1 chain with M19Q, Q21S, S80G, D81Q, T82E, A83G, G84A, A99V
notes: as for B1
With B31, the Kd was no more than 1000 nM and the koff is no more than 2 s⁻¹.

B32: SEQ ID NO 92 (receptor)
chain: B1 chain with M19Q, Q21S, Y77V, Y78G, G79W, S80A, D81V, A99V
notes: as for B1
In the case of B32, the Kd was no more than 1000 nM and the koff is no more than 2 s⁻¹.

B33: SEQ ID NO 63 (receptor)
chain: B1 chain with M19L, G20M
notes: as for B1
Molecule B33 registered a Kd of no more than 1000 nM and a koff of no more than 2 s⁻¹.

B34: SEQ ID NO 100 (receptor)
chain: B1 chain with M19Q, Q21S, A99I, I101L, K102Q, S168G
notes: as for B1
B34 yielded a Kd of no more than 1000 nM and a koff of no more than 2 s⁻¹.

B35: SEQ ID NO 70 (receptor)
chain: B1 chain with W10Q, M19Q, Q21S, Y77V, Y78I, G79Q, S80R, D81G, A99V
notes: as for B1
B35 gave an equilibrium dissociation constant (Kd) of no more than 1000 nM and a koff of no more than 2 s⁻¹.

B36: SEQ ID NO 75 (receptor)
chain: B1 chain with M19Q, Q21S, D81Q, T82G, A83G, G84L
notes: as for B1
As to B36, the Kd is no more than 1000 nM and the koff was no more than 2 s⁻¹.

B37: SEQ ID NO 88 (receptor)
chain: B1 chain with M19V, A99V, S168G
notes: as for B1
On to B37, for which the Kd is no more than 1000 nM and the koff is no more than 2 s⁻¹.

B38: SEQ ID NO 102 (receptor)
chain: B1 chain with M19Q, Q21S, A99I, I101Q
notes: as for B1
B38 came in with a Kd of no more than 1000 nM and a koff of no more than 2 s⁻¹.

B39: SEQ ID NO 105 (receptor)
chain: B1 chain with G20D, A83S, G84Q, R85W, E87A, A99I, I101L, K102A
notes: as for B1
In the case of B39, the Kd is no more than 1000 nM and the koff is no more than 2 s⁻¹.

B40: SEQ ID NO 71 (receptor)
chain: B1 chain with M19Q, Q21S, D81Q, T82G, A83G, G84L, A99V
notes: as for B1
Take B40: the Kd was no more than 1000 nM and the koff was no more than 2 s⁻¹.

B41: SEQ ID NO 99 (receptor)
chain: B1 chain with M19Q, Q21S, A99I, I101Q, K102A, S168G
notes: as for B1
Regarding B41, the dissociation constant Kd is no more than 1000 nM and the koff is no more than 2 s⁻¹.

B42: SEQ ID NO 104 (receptor)
chain: B1 chain with M19L, A99I, I101L, K102A
notes: as for B1
Take B42: the dissociation constant (Kd) is no more than 1000 nM and the koff is no more than 2 s⁻¹.

B43: SEQ ID NO 64 (receptor)
chain: B1 chain with G20Q, Q21R, K42R, N147S
notes: as for B1
The molecule B43 yielded a dissociation constant Kd of no more than 1000 nM and a koff of no more than 2 s⁻¹.
